The values that follow come from patent US20240132578A1.

Holding throughout (experiment): cell-based or functional assay
The target in assay [1] is HIV-1 Env of isolate MGRM-D-003 (HIV-1).
The target of assay [2] is HIV-1 Env of isolate MGRM-C-028 (subtype C), on pseudovirus (HIV-1).
Assay [3] concerns the target HIV-1 Env of pseudovirus isolate 92BR020 (clade B) (HIV-1).
The target of assay [4] is HIV-1 Env of isolate MGRM-C-026 (subtype C), on pseudovirus (HIV-1).
Assay [5] deals with HIV-1 Env of isolate MGRM-C-024 (subtype C), on pseudovirus (HIV-1).
The target in assay [6] is HIV-1 Env of pseudovirus isolate MGRM-Chronic-B-003 (clade B) (HIV-1).
Assay [7] has as its target HIV-1 Env of pseudovirus isolate JR-FL (clade B) (HIV-1).
Assay [8] concerns the target HIV-1 Env of isolate 98CN009 (pseudovirus) (HIV-1).
Assay [9] addresses HIV-1 Env of pseudovirus isolate MGRM-C-013 (clade C) (HIV-1).
In assay [10] the target is HIV-1 Env of isolate MGRM-A-008 (subtype A) (HIV-1).
For assay [11], the target named is HIV-1 Env of isolate MGRM-D-002 (pseudovirus) (HIV-1).
The target of assay [12] is HIV-1 Env of isolate MGRM-F1-008 (HIV-1).
Assay [13] deals with HIV-1 Env of isolate MGRM-D-024 (HIV-1).
Assay [14] has as its target HIV-1 Env of isolate MGRM-C-002 (HIV-1).
For assay [15], the target named is HIV-1 Env of isolate MGRM-F1-017 (HIV-1).
Assay [16] has as its target HIV-1 Env of isolate MGRM-AE-004 (subtype AE) (HIV-1).
Assay [17] concerns the target HIV-1 Env of pseudovirus isolate MGRM-C-020 (clade C) (HIV-1).
Assay [18] has as its target HIV-1 Env of pseudovirus MGRM-F1-015 (HIV-1).
The target of assay [19] is HIV-1 Env of pseudovirus MGRM-D-018 (HIV-1).
The target in assay [20] is HIV-1 JR-CSF Env T303A (HIV-1 (isolate JR-CSF, clade B)) (UniProt P20871).
For assay [21], the target named is HIV-1 JR-CSF Env N392Q (HIV-1 (isolate JR-CSF)) (UniProt P20871).
In assay [22] the target is HIV-1 envelope glycoprotein (Env) of isolate MGRM-Chronic-B-012, on pseudovirus (HIV-1).
Assay [23] has as its target HIV-1 envelope glycoprotein (Env) of isolate MGRM-Chronic-B-002, on pseudovirus (HIV-1).
The target in assay [24] is HIV-1 envelope glycoprotein (Env) of isolate THRO.18, on pseudovirus (HIV-1).
Assay [25] has as its target HIV-1 envelope glycoprotein (Env) of isolate MGRM-AE-002, subtype AE (HIV-1).
The target of assay [26] is HIV-1 envelope glycoprotein (Env) of isolate 92WR009, subtype A (HIV-1).
Assay [27] addresses HIV-1 envelope glycoprotein (Env) of isolate MGRM-Chronic-B-003, on pseudovirus (HIV-1).
In assay [28] the target is HIV-1 Env of isolate MGRM-AG-009 (pseudovirus) (HIV-1).
For assay [29], the target named is HIV-1 envelope glycoprotein (Env) of isolate VLGCB3, on pseudovirus (HIV-1).
Assay [30] deals with HIV-1 92UG005 Env (HIV-1).

As for 4995_P16 (PGT-145) (antibody), in assay [1], the IC50 (µg/mL), pseudovirus neutralization was determined as 0.006 µg/mL. Moreover, the values for the IC50, single-round pseudovirus neutralization in assay [2], in assay [4] and in assay [5] were 0.099 µg/mL, more than 50 µg/mL and 0.174 µg/mL, respectively. Also, the IC50, pseudovirus neutralization in [3] was 1.05 µg/mL; in assay [6], 0.045 µg/mL; in assay [7], 30.4 µg/mL.

Substance 4993_K13 (PGT-141) (antibody) displayed an IC50 (µg/mL), pseudovirus neutralization in assay [1] of more than 50 µg/mL. In addition, the IC50, single-round pseudovirus neutralization was 13.8 µg/mL in assay [2], more than 50 µg/mL in assay [4] and 0.101 µg/mL in assay [5]. The IC50, pseudovirus neutralization is 20.3 µg/mL in [3], 0.4 µg/mL in [6] and more than 50 µg/mL in assay [7].

For 5329_C19 (PGT-136) (antibody), the IC50 (µg/mL), pseudovirus neutralization was 0.428 µg/mL in assay [8]; more than 50 µg/mL in [11]; more than 50 µg/mL in assay [12]; more than 50 µg/mL in assay [13]; more than 50 µg/mL in assay [14]; more than 50 µg/mL in assay [15]. Besides, the IC50, pseudovirus neutralization in [9], in assay [10], in [16] and in [17] was more than 50 µg/mL each time.

As for PGT-144 (4970_K22) (antibody), the IC50, pseudovirus neutralization in [18] and in [19] was more than 50 µg/mL in each case.

Regarding PGT-142 (4995_E20) (antibody), the IC50, pseudovirus neutralization in [18] and in [19] was more than 50 µg/mL in each case.

Turning to 5114_A19 (PGT-128) (antibody), the IC50 (µg/mL), pseudovirus neutralization in [8] is 0.025 µg/mL; in assay [11], 0.011 µg/mL; in assay [12], more than 50 µg/mL; in assay [13], 0.067 µg/mL; in assay [14], 0.019 µg/mL; in assay [15], 11.7 µg/mL. The Fold IC50 increase relative to wild-type in assay [20] is more than 500 fold. Moreover, the Fold IC50 increase relative to wild-type (pseudovirus neutralization) in assay [21] came to 0.9 fold. Further, the IC50, pseudovirus neutralization in assay [9] is more than 50 µg/mL; in assay [10] it was more than 50 µg/mL; in assay [16], more than 50 µg/mL; in assay [17] it was 5.85 µg/mL.

The substance 5145_B14 (PGT-127) (antibody) gave a Fold IC50 increase relative to wild-type in assay [20] of more than 500 fold. This substance also returned a Fold IC50 increase relative to wild-type (pseudovirus neutralization) in assay [21] of 1.1 fold. Also, the IC50, pseudovirus neutralization was 0.075 µg/mL in [22]; 0.279 µg/mL in [23]; more than 50 µg/mL in assay [24]; more than 50 µg/mL in assay [25]; more than 50 µg/mL in assay [26]; 0.12 µg/mL in assay [27]. This substance also yielded an IC50, pseudovirus neutralization in assay [29] of 0.022 µg/mL. The IC50 (µg/mL), pseudovirus neutralization in assay [28] stood at 0.059 µg/mL.

In [20], 5141_B17 (PGT-126) (antibody) showed a Fold IC50 increase relative to wild-type of more than 250 fold. In addition, the Fold IC50 increase relative to wild-type (pseudovirus neutralization) in assay [21] turned out to be 1.6 fold. The IC50, pseudovirus neutralization in [22] is 0.027 µg/mL; in [23] it was 0.078 µg/mL; in [24], more than 50 µg/mL; in [25], more than 50 µg/mL; in assay [30], 0.0181 µg/mL; in [26], more than 50 µg/mL. The IC50, pseudovirus neutralization in [27] amounted to 0.041 µg/mL; in assay [29] it was 0.007 µg/mL. In addition, in assay [28], the IC50 (µg/mL), pseudovirus neutralization came to 0.03 µg/mL.

The substance 4995_E20 (PGT-142) (antibody) returned an IC50 (µg/mL), pseudovirus neutralization in assay [1] of more than 50 µg/mL. The IC50, single-round pseudovirus neutralization was 2.12 µg/mL in assay [2], more than 50 µg/mL in [4] and 0.03 µg/mL in assay [5]. The IC50, pseudovirus neutralization in assay [3] was 15.1 µg/mL; in assay [6], 0.484 µg/mL; in assay [7] it was more than 50 µg/mL.

For PGT-145 (4995_P16) (antibody), the results for the IC50, pseudovirus neutralization in [18] and in assay [19] were 1.76 µg/mL and 0.065 µg/mL, respectively.

As for PGT-143 (4980_N08) (antibody), the IC50, pseudovirus neutralization in assay [18] and in assay [19] was more than 50 µg/mL throughout.

With 5345_I01 (PGT-137) (antibody), the IC50 (µg/mL), pseudovirus neutralization in assay [8] is 5.06 µg/mL; in assay [11], more than 50 µg/mL; in [12], more than 50 µg/mL; in [13], more than 50 µg/mL; in [14] it was 8.03 µg/mL; in [15], more than 50 µg/mL. For the same substance, the IC50, pseudovirus neutralization in [9], in assay [10], in assay [16] and in assay [17] was more than 50 µg/mL each time.

In [20], 5123_A06 (PGT-125) (antibody) showed a Fold IC50 increase relative to wild-type of more than 250 fold. The same substance returned a Fold IC50 increase relative to wild-type (pseudovirus neutralization) in assay [21] of 1.2 fold. The IC50, pseudovirus neutralization is 0.036 µg/mL in [22]; 0.064 µg/mL in assay [23]; more than 50 µg/mL in assay [24]; more than 50 µg/mL in assay [25]; more than 10 µg/mL in [30]; 0.144 µg/mL in assay [26]. For the same substance, the IC50, pseudovirus neutralization in [27] stood at 0.157 µg/mL; in [29], 0.015 µg/mL. This substance yielded an IC50 (µg/mL), pseudovirus neutralization in assay [28] of 0.026 µg/mL.

For 4970_K22 (PGT-144) (antibody), in assay [1], the IC50 (µg/mL), pseudovirus neutralization is more than 50 µg/mL. The IC50, single-round pseudovirus neutralization in [2] was more than 50 µg/mL; in [4], more than 50 µg/mL; in [5], 2.06 µg/mL. Also, the IC50, pseudovirus neutralization is 44 µg/mL in assay [3], 7.41 µg/mL in [6] and more than 50 µg/mL in assay [7].

Substance VRC01 (antibody) showed an IC50 (µg/mL), pseudovirus neutralization in assay [1] of 2.06 µg/mL. In addition, the values for the IC50, single-round pseudovirus neutralization in [2], in assay [4] and in [5] were 0.319 µg/mL, 0.707 µg/mL and 3.4 µg/mL, respectively. Also, the IC50, pseudovirus neutralization in [3] was 0.29 µg/mL; in [18] it was 0.387 µg/mL; in assay [19] it was more than 50 µg/mL; in assay [6], 0.1 µg/mL; in assay [7], 0.034 µg/mL.

Substance 4980_N08 (PGT-143) (antibody) came in with an IC50 (µg/mL), pseudovirus neutralization in [1] of more than 50 µg/mL. Further, the IC50, single-round pseudovirus neutralization in [2] is 12.4 µg/mL; in [4], more than 50 µg/mL; in [5] it was 0.05 µg/mL. Besides, the IC50, pseudovirus neutralization in assay [3] is 25.9 µg/mL; in [6], 0.854 µg/mL; in [7], more than 50 µg/mL.

As for PGT-141 (4964_G22; 4993_K13) (antibody), the IC50, pseudovirus neutralization in [18] and in [19] was more than 50 µg/mL throughout.

On to 5343_B08 (PGT-135) (antibody), for which the IC50 (µg/mL), pseudovirus neutralization was 0.071 µg/mL in assay [8]; more than 50 µg/mL in assay [11]; more than 50 µg/mL in assay [12]; more than 50 µg/mL in assay [13]; more than 50 µg/mL in assay [14]; 7.79 µg/mL in assay [15]. Also, the Fold IC50 increase relative to wild-type (pseudovirus neutralization) in [21] is more than 250 fold. The IC50, pseudovirus neutralization in assay [9], in [10], in [16] and in assay [17] was more than 50 µg/mL each time.
